What all share (test): potentiometry
What all share (settings): 298 K, stated as 40 mM (SDS), 4 mM HClO4, no buffer

Series [1] deals with Nterm1 (position 1, -----FFHHIF).
Series [2] deals with Lys14 (position 14, …).
Series [3] concerns the target Nterm1 (position 1, -----FIHHIF).
Setting [4] is: 1:1 Zn(II) complex (Zn bound by three His imidazoles; N-terminus and Lys not coordinated).

Regarding FFHHIFRGIVHVGKTIHKLVTG [Piscidin 2 (Morone saxatilis x Morone chrysops (hybrid striped bass))], the pKa in series [1] (setting [4]) is 8.04; in series [1] (metal-free peptide) it was 8.82.

FFHHIFRGIVHVGKTIHRLVTG [Piscidin 1 (Morone saxatilis x Morone chrysops (hybrid striped bass))]: the pKa is listed as 7.88 in series [1] (setting [4]); 8.36 in series [1] (metal-free peptide); 9.82 in series [2] (1:1 Cu(II) complex, ATCUN 4N square-planar binding (N-terminal amine, two amides, His3 imidazole)); 10.09 in series [2] (setting [4]); 10.02 in series [2] (metal-free peptide).

With FIHHIFRGIVHAGRSIGRFLTG [Piscidin 3 (Morone saxatilis x Morone chrysops (hybrid striped bass))], the pKa came to 7.29 in series [3] (setting [4]) and 8.26 in series [3] (metal-free peptide).

One may read the pKa as the negative logarithm of the acid dissociation constant.
